The results in this text go back to article PMC6265462.

This data set addresses T1, Pho7-DBD (279-339) (Schizosaccharomyces pombe, UniProt O13658 279-339).
T1 sequence: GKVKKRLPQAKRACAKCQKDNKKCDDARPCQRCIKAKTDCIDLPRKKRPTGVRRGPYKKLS
Description: crystal structure.

B1: tgp1 crystal duplex (dsDNA)
DNA 1: TCCTTCGGACATTCAAATCA
DNA 2: GATTTGAATGTCCGAAGGAT
Consider B1, for which the binding result is “binds”.
